Data reported in the supplement of paper PMC7877785.
± gives the uncertainty stated by the source.

Experiment: self-splicing fitness, log relative to wild type (ln ratio); higher = more splicing; Tetrahymena group I intron in knt gene, E. coli kanamycin selection, DiMSum; sequences stand for … in CUCUCU…GGAGGGAAAAGUUAUCAGGCAUGCACCUGGUAGCUAGUCUUUAAACCAAUAGAUUGCAUCGGUUUAAAAGGCAAGACCGUCAAAUUGCGGGAAAGGGGUCAACAGCCGUUCAGUACCAAGUCUCAGGGGAAACUUUGAGAUGGCCUUGCAAAGGGUAUGGUAAUAAGCUGACGGACAUGGUCCUAACCACGCAGCCAAGUCCUAAGUCAACAGAUCUUCUGUUGAUAUGGAUGCAGUUCACAGACUAAAUGUCGGUCGGGGAAGAUGUAUUCUUCUCAUAAGAUAUAGUCGGACCUCUCCUUAAUGGGAGCUAGCGGAUGAAGUGAUGCAACACUGGAGCCGCUGGGAACUAAUUUGUAUGCGAAAGUAUAUUGAUUAGUUUUGGAGUACUCGUGGUCG
Summary of the method: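 Pooled colonies went to amplicon sequencing on an Illumina HiSeq 2500 after six replicate transformations. The plates were LB agar with 100 μg/mL carbenicillin, 50 μM IPTG and 0.2% rhamnose, with or without 25 μg/mL kanamycin, incubated overnight at 37°C or 30°C. The E. coli BL21(DE3) library had all eight P1ex-region intron nucleotides randomised, the intron placed in the knt kanamycin-resistance gene on pET-22b(+). DiMSum fitness is the error-weighted combination of replicate fold changes, kanamycin against none, normalised to wild type.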

Sequence	self-splicing fitness (ln) (30 °C)	self-splicing fitness (ln) (37 °C)
CGUCAGCAAUAUUACGCAUA	-2.88 ± 0.32	-2.59 ± 0.19
ACAGAGCAAUAUUACGUGUC	-3.27 ± 0.22	-2.94 ± 0.38
ACUGAGCAAUAUUACGUGUC	-2.31 ± 0.25	-2.62 ± 0.28
AGGCAGCAAUAUUACGUACG	-1.22 ± 0.074	0.303 ± 0.1
UUCCAGCAAUAUUACGUAAC	-2.44 ± 0.25	-2.08 ± 0.38
AGUCAGCAAUAUUACGGCCC	-0.436 ± 0.12	-0.0813 ± 0.18
ACCAAGCAAUAUUACGCGUU	-1.91 ± 0.06	-0.292 ± 0.075
GAGUAGCAAUAUUACGACAG	-3.07 ± 0.44	-2.99 ± 0.24
GCCCAGCAAUAUUACGCACU	-0.532 ± 0.075	0.216 ± 0.12
CUCAAGCAAUAUUACGUUUA	-3.93 ± 0.24	-2.65 ± 0.16
UACGAGCAAUAUUACGUCUU	-3.95 ± 0.33	-3.41 ± 0.24
AGCCAGCAAUAUUACGCGGA	-3.48 ± 0.19	-2.23 ± 0.12
GUACAGCAAUAUUACGAUUA	-0.7 ± 0.095	-0.556 ± 0.1
UUUUAGCAAUAUUACGGGGA	-1.56 ± 0.16	-0.366 ± 0.14
UACUAGCAAUAUUACGUACU	-2.51 ± 0.19	-0.347 ± 0.13
CAUAAGCAAUAUUACGAUUC	-3.25 ± 0.2	-3.11 ± 0.26
AGGGAGCAAUAUUACGUAAC	-2.23 ± 0.28	-2.99 ± 0.29
UAACAGCAAUAUUACGUGCU	-3.33 ± 0.16	-2.28 ± 0.16
GGUUAGCAAUAUUACGGUAA	-1.02 ± 0.15	-0.716 ± 0.14
AACUAGCAAUAUUACGUUUA	-1.98 ± 0.11	-1.1 ± 0.11
GAAUAGCAAUAUUACGAGCA	-1.94 ± 0.23	-0.431 ± 0.14
CUUGAGCAAUAUUACGCCUU	–	-2.47 ± 0.37

Sequence	self-splicing fitness (ln) (30 °C)	self-splicing fitness (ln) (37 °C)
AGAGAGCAAUAUUACGUGUC	–	-2.33 ± 0.37
CCCCAGCAAUAUUACGCGGA	-3.34 ± 0.15	-2.07 ± 0.12
CACAAGCAAUAUUACGGGAG	-1.55 ± 0.065	-1.46 ± 0.076
GCCUAGCAAUAUUACGGCUG	-1.88 ± 0.15	-3.29 ± 0.42
GCUCAGCAAUAUUACGUUUA	-1.44 ± 0.09	-0.861 ± 0.083
ACAGAGCAAUAUUACGCCUU	-3.76 ± 0.42	-1.9 ± 0.3
CGGAAGCAAUAUUACGGUAG	-0.312 ± 0.072	-0.214 ± 0.096
GCUUAGCAAUAUUACGAUGG	-1.54 ± 0.1	-0.452 ± 0.097
GUAUAGCAAUAUUACGUUGU	-2.78 ± 0.26	-1.72 ± 0.23
CACUAGCAAUAUUACGGUUU	-1.56 ± 0.077	-0.979 ± 0.093
GGCGAGCAAUAUUACGCGAC	-2.61 ± 0.42	–
CAAUAGCAAUAUUACGCGUA	-2.09 ± 0.18	-1.85 ± 0.23
UUUCAGCAAUAUUACGCCCC	-1.57 ± 0.3	–
ACCUAGCAAUAUUACGCGAU	-2.32 ± 0.078	-0.981 ± 0.087
ACUAAGCAAUAUUACGUUAC	-3.81 ± 0.2	-3.08 ± 0.3
CCGUAGCAAUAUUACGGCAG	-3.35 ± 0.26	-2.28 ± 0.26
UAGCAGCAAUAUUACGCGUC	-3.43 ± 0.2	-2.87 ± 0.22
CGAAAGCAAUAUUACGGUUA	-1.85 ± 0.12	-2.11 ± 0.1
GGUCAGCAAUAUUACGCGAA	-0.889 ± 0.069	0.00884 ± 0.088
GCUGAGCAAUAUUACGCGUC	-1.94 ± 0.17	-0.941 ± 0.21
GGUCAGCAAUAUUACGGAUU	-0.77 ± 0.079	-0.499 ± 0.1
